# Experimental data taken from patent US8278415B2.
# Positions of bridges follow the written chain, without caps; N, C: chain ends. No end group written: not given here. PEG = not defined here
# What was measured:
# [1] = target: EGFR on the surface of tumor cells (human) (UniProt P00533)
# [2] = target: EGFR on the surface of tumor cells (human) (UniProt P00533); assay: flow cytometry on A431 cells preincubated with 2 ug EGF, 2 uM bio-P190: avidin complex, 4° C.
Binder,IC50 D4 [1],IC50 D6 [1],staining over background [2]
DPCTWEVWGRECLQ (disulfide 3-12 (inferred); not fully specified (N-terminus); also: inserted into DOXIL liposomes (doxorubicin)) [P190-DOXIL],120 µg/mL,35 µg/mL,
DPCTWEVWGRECLQ-{PEG-biotin} (disulfide 3-12 (inferred); reading uncertain) [Biotinylated-PEGylated P190],,,20 fold
